The subject of data set [1] is HeLa Kyoto. The data set can be described thus: thermal stability score vs G1/S (z-score of summed log2 fold changes over temperatures); higher = more thermally stable than in G1/S.
For data set [2], the system named is HeLa Kyoto. The data set can be described thus: solubility change mitosis vs G1/S (difference of NP-40 vs SDS log2 ratios) (log2 ratio difference); higher = more soluble in mitosis.
For data set [3], the system named is HeLa Kyoto. The data set can be described thus: solubility in G1/S (NP-40 vs SDS abundance) (log2 ratio); higher = more soluble. As to conditions: cell cycle stage: G1/S.
Data set [4] concerns HeLa Kyoto. The data set can be described thus: melting temperature (median over replicates), in situ; higher = more thermally stable.
[5] abbreviates: cell cycle stage: early G1 (4.5 h after nocodazole release).
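Throughout, for melting temperature (median over replicates), in situ: HeLa Kyoto cells synchronized by double thymidine or nocodazole block, proteins quantified by TMT10plex mass spectrometry, three independent biological replicates.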
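Throughout, for solubility change mitosis vs G1/S (difference of NP-40 vs SDS log2 ratios): synchronized HeLa Kyoto cells (double thymidine block for G1/S, nocodazole release for mitosis), protein amounts in NP-40 versus SDS lysates quantified by mass spectrometry, three biological replicates.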
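Throughout, for solubility in G1/S (NP-40 vs SDS abundance): HeLa Kyoto cells arrested at G1/S by double thymidine block, proteins quantified by TMT10plex mass spectrometry in mild NP-40 versus SDS extracts, three biological replicates.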
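Throughout, for thermal stability score vs G1/S (z-score of summed log2 fold changes over temperatures): synchronized HeLa Kyoto cells, proteins quantified by TMT10plex mass spectrometry, three biological replicates, mitosis taken 0.5 h after nocodazole release, G1/S directly after double thymidine block.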

For “MAPRLQLEKAAWRWAETVRPEEVSQEHIETAYRIWLEPCIRGVCRRNCKGNPNCLVGIGEHIWLGEIDENSFHNIDDPNCERRKKNSFVGLTNLGATCYVNTFLQVWFLNLELRQALYLCPSTCSDYMLGDGIQEEKDYEPQTICEHLQYLFALLQNSNRRYIDPSGFVKALGLDTGQQQDAQEFSKLFMSLLEDTLSKQKNPDVRNIVQQQFCGEYAYVTVCNQCGRESKLLSKFYELELNIQGHKQLTDCISEFLKEEKLEGDNRYFCENCQSKQNATRKIRLLSLPCTLNLQLMRFVFDRQTGHKKKLNTYIGFSEILDMEPYVEHKGGSYVYELSAVLIHRGVSAYSGHYIAHVKDPQSGEWYKFNDEDIEKMEGKKLQLGIEEDLAEPSKSQTRKPKCGKGTHCSRNAYMLVYRLQTQEKPNTTVQVPAFLQELVDRDNSKFEEWCIEMAEMRKQSVDKGKAKHEEVKELYQRLPAGAEPYEFVSLEWLQKWLDESTPTKPIDNHACLCSHDKLHPDKISIMKRISEYAADIFYSRYGGGPRLTVKALCKECVVERCRILRLKNQLNEDYKTVNNLLKAAVKGSDGFWVGKSSLRSWRQLALEQLDEQDGDAEQSNGKMNGSTLNKDESKEERKEEEELNFNEDILCPHGELCISENERRLVSKEAWSKLQQYFPKAPEFPSYKECCSQCKILEREGEENEALHKMIANEQKTSLPNLFQDKNRPCLSNWPEDTDVLYIVSQFFVEEWRKFVRKPTRCSPVSSVGNSALLCPHGGLMFTFASMTKEDSKLIALIWPSEWQMIQKLFVVDHVIKITRIEVGDVNPSETQYISEPKLCPECREGLLCQQQRDLREYTQATIYVHKVVDNKKVMKDSAPELNVSSSETEEDKEEAKPDGEKDPDFNQSNGGTKRQKISHQNYIAYQKQVIRRSMRHRKVRGEKALLVSANQTLKELKIQIMHAFSVAPFDQNLSIDGKILSDDCATLGTLGVIPESVILLKADEPIADYAAMDDVMQVCMPEEGFKGTGLLGH [USP48]”, the thermal stability score in the data set with HeLa Kyoto [1] (setting [5]) turned out to be 1.52; in the data set with HeLa Kyoto [1] (cell cycle stage: mitosis), 2.6. In the data set with HeLa Kyoto [2], the “solubility change mitosis (log2)” value is -0.183. The “solubility in G1/S (log2)” value in the data set with HeLa Kyoto [3] is -0.074. The melting temperature was determined as 47.4 °C with HeLa Kyoto [4] (cell cycle stage: G1/S) and 49.1 °C in the data set with HeLa Kyoto [4] (cell cycle stage: mitosis).

“MELSAVGERVFAAEALLKRRIRKGRMEYLVKWKGWSQKYSTWEPEENILDARLLAAFEEREREMELYGPKKRGPKPKTFLLKAQAKAKAKTYEFRSDSARGIRIPYPGRSPQDLASTSRAREGLRNMGLSPPASSTSTSSTCRAEAPRDRDRDRDRDRERDRERERERERERERERERERGTSRVDDKPSSPGDSSKKRGPKPRKELPDPSQRPLGEPSAGLGEYLKGRKLDDTPSGAGKFPAGHSVIQLARRQDSDLVQCGVTSPSSAEATGKLAVDTFPARVIKHRAAFLEAKGQGALDPNGTRVRHGSGPPSSGGGLYRDMGAQGGRPSLIARIPVARILGDPEEESWSPSLTNLEKVVVTDVTSNFLTVTIKESNTDQGFFKEKR [CBX8]”: the thermal stability score in the data set on HeLa Kyoto [1] (setting [5]) turned out to be 2.83; with HeLa Kyoto [1] (cell cycle stage: mitosis), 5.27. Besides, in the data set with HeLa Kyoto [2], the “solubility change mitosis (log2)” value was found to be 0.612. Further, the “solubility in G1/S (log2)” value in the data set with HeLa Kyoto [3] is -0.615. Moreover, the melting temperature in the data set with HeLa Kyoto [4] (cell cycle stage: G1/S) stood at 46.1 °C; with HeLa Kyoto [4] (cell cycle stage: mitosis), 49.5 °C.

With “MCGDCVEKEYPNRGNTCLENGSFLLNFTGCAVCSKRDFMLITNKSLKEEDGEEIVTYDHLCKNCHHVIARHEYTFSIMDEFQEYTMLCLLCGKAEDTISILPDDPRQMTLLF [CHURC1]”, the thermal stability score in the data set with HeLa Kyoto [1] (setting [5]) was -2.8; in the data set on HeLa Kyoto [1] (cell cycle stage: mitosis) it was -3.3. The “solubility change mitosis (log2)” value with HeLa Kyoto [2] was -0.361. In addition, the “solubility in G1/S (log2)” value in the data set on HeLa Kyoto [3] is 0.0387. Moreover, the results for the melting temperature in the data set with HeLa Kyoto [4] (cell cycle stage: G1/S) and with HeLa Kyoto [4] (cell cycle stage: mitosis) were 51.5 °C and 52.5 °C, respectively.

On to “MEGAGENAPESSSSAPGSEESARDPQVPPPEEESGDCARSLEAVPKKLCGYLSKFGGKGPIRGWKSRWFFYDERKCQLYYSRTAQDANPLDSIDLSSAVFDCKADAEEGIFEIKTPSRVITLKAATKQAMLYWLQQLQMKRWEFHNSPPAPPATPDAALAGNGPVLHLELGQEEAELEEFLCPVKTPPGLVGVAAALQPFPALQNISLKHLGTEIQNTMHNIRGNKQAQGTGHEPPGEDSPQSGEPQREEQPLASDASTPGREPEDSPKPAPKPSLTISFAQKAKRQNNTFPFFSEGITRNRTAQEKVAALEQQVLMLTKELKSQKELVKILHKALEAAQQEKRASSAYLAAAEDKDRLELVRHKVRQIAELGRRVEALEQERESLAHTASLREQQVQELQQHVQLLMDKNHAKQQVICKLSEKVTQDFTHPPDQSPLRPDAANRDFLSQQGKIEHLKDDMEAYRTQNCFLNSEIHQVTKIWRKVAEKEKALLTKCAYLQARNCQVESKYLAGLRRLQEALGDEASECSELLRQLVQEALQWEAGEASSDSIELSPISKYDEYGFLTVPDYEVEDLKLLAKIQALESRSHHLLGLEAVDRPLRERWAALGDLVPSAELKQLLRAGVPREHRPRVWRWLVHLRVQHLHTPGCYQELLSRGQAREHPAARQIELDLNRTFPNNKHFTCPTSSFPDKLRRVLLAFSWQNPTIGYCQGLNRLAAIALLVLEEEESAFWCLVAIVETIMPADYYCNTLTASQVDQRVLQDLLSEKLPRLMAHLGQHHVDLSLVTFNWFLVVFADSLISNILLRVWDAFLYEGTKVVFRYALAIFKYNEKEILRLQNGLEIYQYLRFFTKTISNSRKLMNIAFNDMNPFRMKQLRQLRMVHRERLEAELRELEQLKAEYLERRASRRRAVSEGCASEDEVEGEA [TBC1D2]”, for which the thermal stability score was found to be 1.39 in the data set on HeLa Kyoto [1] (setting [5]) and 0.724 in the data set with HeLa Kyoto [1] (cell cycle stage: mitosis). For the same substance, the “solubility change mitosis (log2)” value with HeLa Kyoto [2] is -0.0396. Further, the “solubility in G1/S (log2)” value in the data set on HeLa Kyoto [3] is -0.179. For the same substance, the results for the melting temperature in the data set on HeLa Kyoto [4] (cell cycle stage: G1/S) and in the data set with HeLa Kyoto [4] (cell cycle stage: mitosis) were 49.7 °C and 49.4 °C, respectively.

On to DMD, for which the thermal stability score in the data set with HeLa Kyoto [1] (setting [5]) was 0.00802; in the data set on HeLa Kyoto [1] (cell cycle stage: mitosis), 0.278. Further, in the data set with HeLa Kyoto [2], the “solubility change mitosis (log2)” value was -0.235. Besides, the “solubility in G1/S (log2)” value in the data set with HeLa Kyoto [3] was 0.235. For the same substance, the melting temperature in the data set on HeLa Kyoto [4] (cell cycle stage: G1/S) amounted to 49.9 °C; in the data set with HeLa Kyoto [4] (cell cycle stage: mitosis), 50.2 °C.

“MSQAVQTNGTQPLSKTWELSLYELQRTPQEAITDGLEIVVSPRSLHSELMCPICLDMLKNTMTTKECLHRFCADCIITALRSGNKECPTCRKKLVSKRSLRPDPNFDALISKIYPSRDEYEAHQERVLARINKHNNQQALSHSIEEGLKIQAMNRLQRGKKQQIENGSGAEDNGDSSHCSNASTHSNQEAGPSNKRTKTSDDSGLELDNNNAAMAIDPVMDGASEIELVFRPHPTLMEKDDSAQTRYIKTSGNATVDHLSKYLAVRLALEELRSKGESNQMNLDTASEKQYTIYIATASGQFTVLNGSFSLELVSEKYWKVNKPMELYYAPTKEHK [RNF2]”: the thermal stability score was 0.412 in the data set on HeLa Kyoto [1] (setting [5]) and 0.728 with HeLa Kyoto [1] (cell cycle stage: mitosis). The “solubility change mitosis (log2)” value in the data set on HeLa Kyoto [2] worked out at 0.211. Also, the “solubility in G1/S (log2)” value in the data set with HeLa Kyoto [3] is -0.307. In addition, the melting temperature in the data set on HeLa Kyoto [4] (cell cycle stage: G1/S) came out at 49.2 °C; in the data set with HeLa Kyoto [4] (cell cycle stage: mitosis) it was 51.7 °C.

(Values after the supplement of paper PMC5998384.)
